In patent US20260356955 (published 2026):
Where a chain is given by its changes, count along the chain named. One block for each binder: values may come before it.

Experiments:
human KLRB1 on CHO-K1 [1] = biological target: human KLRB1 on CHO-K1 (human); experiment: FACS
human KLRB1 on CHO-K1 [2] = biological target: human KLRB1 on CHO-K1 (human); experiment: competition, CLEC2D, FACS
human KLRB1 ECD = human KLRB1 ECD (human); experiment: ELISA
[3] = biological target: T1, cynomolgus KLRB1 on CHO-K1 (cynomolgus); experiment: FACS
T1 chain: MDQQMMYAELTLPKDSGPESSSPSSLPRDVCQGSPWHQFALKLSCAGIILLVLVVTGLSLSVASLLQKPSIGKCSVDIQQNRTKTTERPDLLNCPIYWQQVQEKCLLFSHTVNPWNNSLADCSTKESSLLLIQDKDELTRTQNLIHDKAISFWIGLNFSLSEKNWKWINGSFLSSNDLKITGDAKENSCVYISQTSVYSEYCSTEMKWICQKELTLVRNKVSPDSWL

cynomolgus KLRB1 ECD = biological target: T2, cynomolgus KLRB1 ECD (cynomolgus); experiment: ELISA
T2 chain: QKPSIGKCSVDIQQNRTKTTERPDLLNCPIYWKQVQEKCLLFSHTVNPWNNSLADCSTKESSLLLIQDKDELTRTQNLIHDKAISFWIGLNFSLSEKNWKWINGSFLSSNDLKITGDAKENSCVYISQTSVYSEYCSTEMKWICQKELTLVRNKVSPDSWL

human KLRB1 on CHO-K1 (human), sequence (chain, as listed by the source): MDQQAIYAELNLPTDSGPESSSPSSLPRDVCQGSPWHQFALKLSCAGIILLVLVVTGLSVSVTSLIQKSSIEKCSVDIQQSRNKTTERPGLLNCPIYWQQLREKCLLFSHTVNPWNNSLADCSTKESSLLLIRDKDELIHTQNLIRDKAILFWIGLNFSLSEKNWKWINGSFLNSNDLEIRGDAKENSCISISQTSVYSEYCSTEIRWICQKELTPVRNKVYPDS
human KLRB1 ECD (human), sequence (chain, as listed by the source): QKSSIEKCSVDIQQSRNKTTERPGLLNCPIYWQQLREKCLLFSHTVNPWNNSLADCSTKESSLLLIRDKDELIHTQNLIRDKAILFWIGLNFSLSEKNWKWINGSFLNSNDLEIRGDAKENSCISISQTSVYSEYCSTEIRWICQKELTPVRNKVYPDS

EC50 (human KLRB1 on CHO-K1 [1]): 2.12 nM
IC50 (human KLRB1 on CHO-K1 [2]): 2.54 nM
EC50 (human KLRB1 ECD): 0.0309 nM
EC50 [3]: ~1.82 nM
EC50 (cynomolgus KLRB1 ECD): 0.0414 nM
B1: Hu47A5H2-14 (antibody, V domains shown)
VH: QVQLVQSGAEVKKPGASVKVSCKGSGYSFTGYWMHWVRQAPGQGLEWMGMIHPSDSETRLNQKFKDKVTMTVDKSTSTVYMELSSLRSEDTAVYYCASEGLRRGSFAYWGQGTLVTVSS
VL: DIVLTQSPDSLAVSLGERATINCRASESVDNYGMTFMSWYQQKPGQPPKLLIYAASNQGSGVPDRFSGSGSGTDFTLTISSLQAEDVAVYYCQQSKEVPYTFGQGTKLEIK

EC50 (human KLRB1 on CHO-K1 [1]): 2.08 nM
IC50 (human KLRB1 on CHO-K1 [2]): 2.05 nM
EC50 (human KLRB1 ECD): 0.0198 nM
EC50 [3]: 7.51 nM
EC50 (cynomolgus KLRB1 ECD): 0.0372 nM
B2: Hu47A5H2-02 (antibody, V domains shown)
VH: B1 VH with G24A, K67R, V72R, K74T
VL: B1 VL

EC50 (human KLRB1 on CHO-K1 [1]): 0.88 nM
IC50 (human KLRB1 on CHO-K1 [2]): 1.96 nM
EC50 (human KLRB1 ECD): 0.0272 nM
EC50 [3]: ~1.65 nM
EC50 (cynomolgus KLRB1 ECD): 0.0174 nM
B3: Hu47A5H2-10 (antibody, V domains shown)
VH: B1 VH with G24A, K67R
VL: B1 VL

EC50 (human KLRB1 on CHO-K1 [1]): 1.79 nM
IC50 (human KLRB1 on CHO-K1 [2]): 2.31 nM
EC50 (human KLRB1 ECD): 0.0266 nM
EC50 [3]: ~1.81 nM
EC50 (cynomolgus KLRB1 ECD): 0.0984 nM
B4: Hu47A5H2-13 (antibody, V domains shown)
VH: B1 VH
VL: B1 VL with L4M

EC50 (human KLRB1 on CHO-K1 [1]): 1.67 nM
IC50 (human KLRB1 on CHO-K1 [2]): 2.53 nM
EC50 (human KLRB1 ECD): 0.0212 nM
EC50 [3]: 4.71 nM
EC50 (cynomolgus KLRB1 ECD): 0.0441 nM
B5: Hu47A5H2-04 (antibody, V domains shown)
VH: B1 VH with G24A, K67R, V72R, K74T
VL: EIVLTQSPATLSLSPGERATLSCRASESVDNYGMTFMSWYQQKPGQAPRLLIYAASNQGSGIPARFSGSGSGTDFTLTISSLEPEDFAVYYCQQSKEVPYTFGQGTKLEIK

EC50 (human KLRB1 on CHO-K1 [1]): 1.98 nM
IC50 (human KLRB1 on CHO-K1 [2]): 2.47 nM
EC50 (human KLRB1 ECD): 0.0241 nM
EC50 [3]: ~1.74 nM
EC50 (cynomolgus KLRB1 ECD): 0.00973 nM
B6: Hu47A5H2-15 (antibody, V domains shown)
VH: B1 VH
VL: B1 VL with Y40F

EC50 (human KLRB1 on CHO-K1 [1]): 2.65 nM
IC50 (human KLRB1 on CHO-K1 [2]): 1.59 nM
EC50 (human KLRB1 ECD): 0.0195 nM
EC50 [3]: 7.76 nM
EC50 (cynomolgus KLRB1 ECD): 0.116 nM
B7: Hu47A5H2-01 (antibody, V domains shown)
VH: B1 VH with G24A, K67R, V72R, K74T
VL: B1 VL with L4M

EC50 (human KLRB1 on CHO-K1 [1]): 1.67 nM
IC50 (human KLRB1 on CHO-K1 [2]): 2.66 nM
EC50 (human KLRB1 ECD): 0.0204 nM
EC50 [3]: 6.62 nM
EC50 (cynomolgus KLRB1 ECD): 0.0562 nM
B8: Hu47A5H2-06 (antibody, V domains shown)
VH: B1 VH with G24A, K67R, K74T
VL: B1 VL

EC50 (human KLRB1 on CHO-K1 [1]): 1.96 nM
IC50 (human KLRB1 on CHO-K1 [2]): 2.22 nM
EC50 (human KLRB1 ECD): 0.0273 nM
EC50 [3]: ~1.86 nM
EC50 (cynomolgus KLRB1 ECD): 0.0283 nM
B9: Hu47A5H2-09 (antibody, V domains shown)
VH: B1 VH with G24A, K67R
VL: B1 VL with L4M

EC50 (human KLRB1 on CHO-K1 [1]): 1.73 nM
IC50 (human KLRB1 on CHO-K1 [2]): 2.31 nM
EC50 (human KLRB1 ECD): 0.0205 nM
EC50 [3]: 11.6 nM
EC50 (cynomolgus KLRB1 ECD): 0.0137 nM
B10: Hu47A5H2-03 (antibody, V domains shown)
VH: B1 VH with G24A, K67R, V72R, K74T
VL: B1 VL with Y40F

EC50 (human KLRB1 on CHO-K1 [1]): 2.11 nM
IC50 (human KLRB1 on CHO-K1 [2]): 2.41 nM
EC50 (human KLRB1 ECD): 0.0287 nM
EC50 [3]: ~1.8 nM
EC50 (cynomolgus KLRB1 ECD): 0.0429 nM
B11: Hu47A5H2-16 (antibody, V domains shown)
VH: B1 VH
VL: B5 VL
